T1: hIL-2Rαβγ on CTLL-2 cells (human, UniProt P01589 22-272; P14784 27-551; P31785 23-369)
T1 sequence (looked up) 1: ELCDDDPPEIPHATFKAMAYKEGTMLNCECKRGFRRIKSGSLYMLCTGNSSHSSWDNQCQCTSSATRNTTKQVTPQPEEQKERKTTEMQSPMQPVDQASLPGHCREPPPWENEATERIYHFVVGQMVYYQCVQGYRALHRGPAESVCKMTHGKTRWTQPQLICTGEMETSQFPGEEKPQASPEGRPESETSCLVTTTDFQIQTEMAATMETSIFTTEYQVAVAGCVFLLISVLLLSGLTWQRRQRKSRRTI
T1 sequence (looked up) 2: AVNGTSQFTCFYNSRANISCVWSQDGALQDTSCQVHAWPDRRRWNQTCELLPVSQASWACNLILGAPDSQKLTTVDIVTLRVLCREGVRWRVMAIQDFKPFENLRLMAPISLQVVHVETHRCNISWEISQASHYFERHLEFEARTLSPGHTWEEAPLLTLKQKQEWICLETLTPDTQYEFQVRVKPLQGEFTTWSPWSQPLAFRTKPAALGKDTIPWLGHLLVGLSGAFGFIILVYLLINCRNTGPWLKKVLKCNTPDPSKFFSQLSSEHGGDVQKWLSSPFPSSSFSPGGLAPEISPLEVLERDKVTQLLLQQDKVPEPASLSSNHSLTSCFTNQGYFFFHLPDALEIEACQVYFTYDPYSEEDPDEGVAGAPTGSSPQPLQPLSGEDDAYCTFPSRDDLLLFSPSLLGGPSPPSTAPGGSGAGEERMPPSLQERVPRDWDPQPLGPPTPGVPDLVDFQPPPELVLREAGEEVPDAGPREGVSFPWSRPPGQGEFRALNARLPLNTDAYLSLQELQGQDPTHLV
T1 sequence (looked up) 3: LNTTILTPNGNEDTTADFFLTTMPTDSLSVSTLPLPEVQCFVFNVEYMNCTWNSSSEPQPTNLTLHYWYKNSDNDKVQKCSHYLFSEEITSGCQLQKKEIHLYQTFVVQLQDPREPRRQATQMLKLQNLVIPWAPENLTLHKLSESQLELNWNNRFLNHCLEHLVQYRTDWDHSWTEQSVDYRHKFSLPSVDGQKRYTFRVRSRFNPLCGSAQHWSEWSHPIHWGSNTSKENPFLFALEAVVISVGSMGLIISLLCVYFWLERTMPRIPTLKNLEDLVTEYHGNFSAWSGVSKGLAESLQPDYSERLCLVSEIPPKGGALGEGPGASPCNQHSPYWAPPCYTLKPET

T2: hCD73 (human, UniProt P21589 27-549, limits assumed)
T2 sequence: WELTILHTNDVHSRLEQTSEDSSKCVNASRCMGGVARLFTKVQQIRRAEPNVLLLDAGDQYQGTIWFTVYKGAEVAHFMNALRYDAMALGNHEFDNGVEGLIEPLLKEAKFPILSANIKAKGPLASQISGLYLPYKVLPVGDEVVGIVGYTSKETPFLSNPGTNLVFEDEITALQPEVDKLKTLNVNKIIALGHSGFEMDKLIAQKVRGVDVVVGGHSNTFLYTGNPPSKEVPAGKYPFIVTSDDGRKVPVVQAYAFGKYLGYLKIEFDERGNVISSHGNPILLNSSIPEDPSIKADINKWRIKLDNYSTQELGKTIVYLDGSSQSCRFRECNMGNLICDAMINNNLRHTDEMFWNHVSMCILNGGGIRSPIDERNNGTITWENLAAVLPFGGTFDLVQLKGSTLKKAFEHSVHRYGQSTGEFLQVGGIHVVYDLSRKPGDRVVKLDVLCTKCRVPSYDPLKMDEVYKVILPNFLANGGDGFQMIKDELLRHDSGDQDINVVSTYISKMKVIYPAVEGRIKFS

T3: IL-2Rβγ on HEK-BLUE IL-2 reporter cells (UniProt P14784 27-551; P31785 23-369)
T3 sequence (looked up) 1: T1 sequence (looked up) 2
T3 sequence (looked up) 2: T1 sequence (looked up) 3

B1: GI-108A1 (AHP04167) (Anti-CD73 sdAb-hIgG4 Fc-hIL2v3 fusion protein dimer) (Fc fusion)
chain: EVQLVESGGGLVQAGGSLRLSCVVSGRTFSNYHMGWFRQAPGKEREFVAVIGRSGGPTYYADSVKGRFTISRDNAKNTVYLQMNSLKPEDTAVYYCAGDWRNSDSPSKLKPVYDYWGQGTQVTVSSGGGGSAESKYGPPCPPCPAPEAAGGPSVFLFPPKPKDQLMISRTPEVTCVVVDVSQEDPEVQFNWYVDGVEVHNAKTKPREEQFNSTYRVVSVLTVLHQDWLNGKEYKCKVSNKGLPSSIEKTISKAKGQPREPQVYTLPPSQEEMTKNQVSLTCLVKGFYPSDIAVEWESNGQPENNYKTTPPVLDSDGSFFLYSRLTVDKSRWQEGNVFSCSVLHEALHNHYTQKSLSLSLGGGGGSGGGGSGGGGSAPTSSSTKKTQLQLEHLLLDLQMILNGINNYKNPKLTAMLTAKFYMPKKATELKHLQCLERELKPLEEVLNLAQSKNFHLRPRDLISNINVIVLELKGSETTFMCEYADETATIVEFLNRWITFCQSIISTLT
notes: Homodimer through hinge cysteines
B2: GI-108A1 (AHF10240) (Anti-CD73 sdAb-hIgG4 Fc-hIL2v3 fusion protein dimer) (Fc fusion)
chain: EVQLVESGGGVVQTGGSLRLSCAASGRTFTHLAMGWFRQAPGKEREFVAAISNSGAGTQFADSVKGRFTISRDNAKNTVYLQMNSLKPEDTAVYYCAADWGTRDSPSKLNAVYDYWGRGTQVTVSSGGGGSAESKYGPPCPPCPAPEAAGGPSVFLFPPKPKDQLMISRTPEVTCVVVDVSQEDPEVQFNWYVDGVEVHNAKTKPREEQFNSTYRVVSVLTVLHQDWLNGKEYKCKVSNKGLPSSIEKTISKAKGQPREPQVYTLPPSQEEMTKNQVSLTCLVKGFYPSDIAVEWESNGQPENNYKTTPPVLDSDGSFFLYSRLTVDKSRWQEGNVFSCSVLHEALHNHYTQKSLSLSLGGGGGSGGGGSGGGGSAPTSSSTKKTQLQLEHLLLDLQMILNGINNYKNPKLTAMLTAKFYMPKKATELKHLQCLERELKPLEEVLNLAQSKNFHLRPRDLISNINVIVLELKGSETTFMCEYADETATIVEFLNRWITFCQSIISTLT
notes: as for B1
B3: GI-108B1 (Anti-CD73 Ab-hIgG4 Fc-hIL2v3 fusion protein dimer) (antibody)
heavy: QVQLVQSGAEVKKPGSSVKVSCKFSGGSFTSYSFSWVRQAPGQGLEWMGRIIPVLTTTDYAQKFRDRVTITADESTSTAYMELSGLRSEDTAVYYCASGLKKNWYFDLWGRGALITVSSASTKGPSVFPLAPCSRSTSESTAALGCLVKDYFPEPVTVSWNSGALTSGVHTFPAVLQSSGLYSLSSVVTVPSSSLGTKTYTCNVDHKPSNTKVDKRVESKYGPPCPPCPAPEAAGGPSVFLFPPKPKDQLMISRTPEVTCVVVDVSQEDPEVQFNWYVDGVEVHNAKTKPREEQFNSTYRVVSVLTVLHQDWLNGKEYKCKVSNKGLPSSIEKTISKAKGQPREPQVYTLPPSQEEMTKNQVSLTCLVKGFYPSDIAVEWESNGQPENNYKTTPPVLDSDGSFFLYSRLTVDKSRWQEGNVFSCSVLHEALHNHYTQKSLSLSLGGGGGSGGGGSAPTSSSTKKTQLQLEHLLLDLQMILNGINNYKNPKLTAMLTAKFYMPKKATELKHLQCLERELKPLEEVLNLAQSKNFHLRPRDLISNINVIVLELKGSETTFMCEYADETATIVEFLNRWITFCQSIISTLT
light: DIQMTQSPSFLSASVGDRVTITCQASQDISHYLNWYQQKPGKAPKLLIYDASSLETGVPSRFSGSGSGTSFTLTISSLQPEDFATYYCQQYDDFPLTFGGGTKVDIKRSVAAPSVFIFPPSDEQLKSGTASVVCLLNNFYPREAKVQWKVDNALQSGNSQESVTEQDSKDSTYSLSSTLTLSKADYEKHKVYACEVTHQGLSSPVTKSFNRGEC
notes: IgG4 anti-CD73 antibody with the IL-2 variant fused to the C-terminus of each heavy chain; expressed in CHO cells, purified as a dimer

For the first test, the target named is T1, hIL-2Rαβγ on CTLL-2 cells. The test is described as follows: cell-based or functional assay.
Consider B1, for which the “EC50, CTLL-2 cell proliferation (WST-1 absorbance)” value (“EC50, CTLL-2 cell proliferation” below) is 3.93 nM and the “EC50 of CTLL-2 cell proliferation, relative to PROLEUKIN” value (“EC50 … relative to PROLEUKIN” for short) is 20 fold.

For the molecule B2, the “EC50, CTLL-2 cell proliferation” value turned out to be 2.02 nM and the “EC50 … relative to PROLEUKIN” value stood at 20 fold.

Regarding B3, the “EC50, CTLL-2 cell proliferation” value stood at 1.7 nM and the “EC50 … relative to PROLEUKIN” value is 20 fold.

For another test, the target named is T2, hCD73. As to the kind of experiment: cell-based or functional assay.
Consider B1, for which the “IC50, inhibition of soluble CD73 enzyme activity (AMP-Glo assay, recombinant human CD73)” value (“IC50, inhibition” for short) turned out to be 0.102 nM.

Regarding B2, the “IC50, inhibition” value amounted to 0.06 nM.

Take B3: the “IC50, inhibition” value is 0.126 nM.

A further test deals with T3, IL-2Rβγ on HEK-BLUE IL-2 reporter cells. The test is described as follows: cell-based or functional assay.
For B1, the “EC50, SEAP reporter (JAK-STAT pathway activation) in HEK-BLUE IL-2 reporter cells” value (“EC50, SEAP reporter” for short) was found to be 0.00394 nM.

As for B2, the “EC50, SEAP reporter” value amounted to 0.00263 nM.

On to B3, for which the “EC50, SEAP reporter” value was 0.00128 nM.

These data come from patent US20260061032A1 (GI INNOVATION, published 2026).
